Test results from paper PMC9352680, “A comprehensive thermodynamic model for RNA binding by the Saccharomyces cerevisiae Pumilio protein PUF4”.

T1: PUF4 RNA-binding domain (Saccharomyces cerevisiae, UniProt P25339 537-888)
T1 sequence: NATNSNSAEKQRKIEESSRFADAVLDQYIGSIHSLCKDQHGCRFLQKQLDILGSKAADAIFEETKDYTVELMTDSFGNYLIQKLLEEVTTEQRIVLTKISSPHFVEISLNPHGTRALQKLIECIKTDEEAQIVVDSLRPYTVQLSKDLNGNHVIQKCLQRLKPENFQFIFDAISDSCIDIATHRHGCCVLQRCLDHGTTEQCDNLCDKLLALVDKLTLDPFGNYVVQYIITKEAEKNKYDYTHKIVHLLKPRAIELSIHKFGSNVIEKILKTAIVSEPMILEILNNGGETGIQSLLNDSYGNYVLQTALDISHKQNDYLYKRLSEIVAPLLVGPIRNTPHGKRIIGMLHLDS


Molecular target: T1, PUF4 RNA-binding domain
Assay: Mg; RNA-MaP; 20 mM Na-HEPES pH 7.4, 30 mM KOAc, 0.75 mM MgCl2, 0.1% Tween-20, 5% glycerol, 0.1 mg/mL BSA, 2 mM DTT; 25 C; 0.0125-409.6 nM protein
Details: tags: N-His6-TEV cleaved; C-SNAP kept, Cy3B-labelled; label: tethered on chip by stalled RNA polymerase

Binder | Kd [nM]
UCUCUUUGCAUACAUCUCUU (ssRNA) [Ib_S1_P3E.1_K3.1_C3.1_H3.1_[T3C]_A3.1_F3.1_[T7C]_T3.1] | > 2300
UCUCUUUGUACGAUUUCUCUU (ssRNA) [Ic_S1_P4E.1_K4.1_C4.1_H4.1_A4.1_[T5C]_[A6G]_[T7A]_F4.1_[A9T]_T4.1] | 22.7
UCUCUUUGUACCCGGUCUCUU (ssRNA) [Ic_S1_P4E.1_K4.1_C4.1_H4.1_A4.1_[T5C]_[A6C]_[T7C]_F4.1_[T8G]_[A9G]_T4.1] | > 2300
UCUCUUUGUACCCGCUCUCUU (ssRNA) [Ic_S1_P4E.1_K4.1_C4.1_H4.1_A4.1_[T5C]_[A6C]_[T7C]_F4.1_[T8G]_[A9C]_T4.1] | 1420
UCUCUUUCUAUACAUCUCUU (ssRNA) [Ib_S1_P3E.1_K3.1_C3.1_H3.1_[G2C]_A3.1_F3.1_[T7C]_T3.1] | > 2300
UCUCUUUGUACGGUAUCUCUU (ssRNA) [Ic_S1_P4E.1_K4.1_C4.1_H4.1_A4.1_[T5C]_[A6G]_[T7G]_F4.1_T4.1] | 13.4
UCUCUUUGUACGCACUCUCUU (ssRNA) [Ic_S1_P4E.1_K4.1_C4.1_H4.1_A4.1_[T5C]_[A6G]_[T7C]_F4.1_[T8A]_[A9C]_T4.1] | 669
UCUCUUAGUAUACAUCUCUU (ssRNA) [Ib_S1_P3E.1_K3.1_C3.1_H3.1_[T1A]_A3.1_F3.1_[T7C]_T3.1] | > 2300
UCUCUUUGUACGUCCUCUCUU (ssRNA) [Ic_S1_P4E.1_K4.1_C4.1_H4.1_A4.1_[T5C]_[A6G]_F4.1_[T8C]_[A9C]_T4.1] | 482
UCUCUUUGUACGGUCUCUCUU (ssRNA) [Ic_S1_P4E.1_K4.1_C4.1_H4.1_A4.1_[T5C]_[A6G]_[T7G]_F4.1_[A9C]_T4.1] | 1490
UCUCUUUGUACGCAAUCUCUU (ssRNA) [Ic_S1_P4E.1_K4.1_C4.1_H4.1_A4.1_[T5C]_[A6G]_[T7C]_F4.1_[T8A]_T4.1] | 139
UCUCUUUGUACGUGUUCUCUU (ssRNA) [Ic_S1_P4E.1_K4.1_C4.1_H4.1_A4.1_[T5C]_[A6G]_F4.1_[T8G]_[A9T]_T4.1] | 110
UCUCUUUGUACCGUCUCUCUU (ssRNA) [Ic_S1_P4E.1_K4.1_C4.1_H4.1_A4.1_[T5C]_[A6C]_[T7G]_F4.1_[A9C]_T4.1] | 1140
UCUCUUUGUACGGCCUCUCUU (ssRNA) [Ic_S1_P4E.1_K4.1_C4.1_H4.1_A4.1_[T5C]_[A6G]_[T7G]_F4.1_[T8C]_[A9C]_T4.1] | > 2300
UCUCUUUGUACGUAGUCUCUU (ssRNA) [Ic_S1_P4E.1_K4.1_C4.1_H4.1_A4.1_[T5C]_[A6G]_F4.1_[T8A]_[A9G]_T4.1] | 93.5
UCUCUUUGUACGGCAUCUCUU (ssRNA) [Ic_S1_P4E.1_K4.1_C4.1_H4.1_A4.1_[T5C]_[A6G]_[T7G]_F4.1_[T8C]_T4.1] | 625
UCUCUUUGUACGCCCUCUCUU (ssRNA) [Ic_S1_P4E.1_K4.1_C4.1_H4.1_A4.1_[T5C]_[A6G]_[T7C]_F4.1_[T8C]_[A9C]_T4.1] | 879
UCUCUUUGUACCGCCUCUCUU (ssRNA) [Ic_S1_P4E.1_K4.1_C4.1_H4.1_A4.1_[T5C]_[A6C]_[T7G]_F4.1_[T8C]_[A9C]_T4.1] | 1630
UCUCUUUGUACGUUGUCUCUU (ssRNA) [Ic_S1_P4E.1_K4.1_C4.1_H4.1_A4.1_[T5C]_[A6G]_F4.1_[A9G]_T4.1] | 40.5
UCUCUUUGUACGUAUUCUCUU (ssRNA) [Ic_S1_P4E.1_K4.1_C4.1_H4.1_A4.1_[T5C]_[A6G]_F4.1_[T8A]_[A9T]_T4.1] | 96.3
UCUCUUUGUACCAGGUCUCUU (ssRNA) [Ic_S1_P4E.1_K4.1_C4.1_H4.1_A4.1_[T5C]_[A6C]_[T7A]_F4.1_[T8G]_[A9G]_T4.1] | 1790
UCUCUUUGUACGUGAUCUCUU (ssRNA) [Ic_S1_P4E.1_K4.1_C4.1_H4.1_A4.1_[T5C]_[A6G]_F4.1_[T8G]_T4.1] | 629

Binder | Kd [nM]
UCUCUUUGUACGCGCUCUCUU (ssRNA) [Ic_S1_P4E.1_K4.1_C4.1_H4.1_A4.1_[T5C]_[A6G]_[T7C]_F4.1_[T8G]_[A9C]_T4.1] | 1130
UCUCUUUGUACGCGUUCUCUU (ssRNA) [Ic_S1_P4E.1_K4.1_C4.1_H4.1_A4.1_[T5C]_[A6G]_[T7C]_F4.1_[T8G]_[A9T]_T4.1] | 1440
UCUCUUUGUACGAUAUCUCUU (ssRNA) [Ic_S1_P4E.1_K4.1_C4.1_H4.1_A4.1_[T5C]_[A6G]_[T7A]_F4.1_T4.1] | 2.75
UCUCUUUGUACCGGCUCUCUU (ssRNA) [Ic_S1_P4E.1_K4.1_C4.1_H4.1_A4.1_[T5C]_[A6C]_[T7G]_F4.1_[T8G]_[A9C]_T4.1] | > 2300
UCUCUUUGUACCCUAUCUCUU (ssRNA) [Ic_S1_P4E.1_K4.1_C4.1_H4.1_A4.1_[T5C]_[A6C]_[T7C]_F4.1_T4.1] | 7.5
UCUCUUUGUACCCGUUCUCUU (ssRNA) [Ic_S1_P4E.1_K4.1_C4.1_H4.1_A4.1_[T5C]_[A6C]_[T7C]_F4.1_[T8G]_[A9T]_T4.1] | 842
UCUCUUUGUACGCAUUCUCUU (ssRNA) [Ic_S1_P4E.1_K4.1_C4.1_H4.1_A4.1_[T5C]_[A6G]_[T7C]_F4.1_[T8A]_[A9T]_T4.1] | 425
UCUCUUUGUACCCUUUCUCUU (ssRNA) [Ic_S1_P4E.1_K4.1_C4.1_H4.1_A4.1_[T5C]_[A6C]_[T7C]_F4.1_[A9T]_T4.1] | 26.8
UCUCUUUGUACCCCGUCUCUU (ssRNA) [Ic_S1_P4E.1_K4.1_C4.1_H4.1_A4.1_[T5C]_[A6C]_[T7C]_F4.1_[T8C]_[A9G]_T4.1] | > 2300
UCUCUUUGUACCCUGUCUCUU (ssRNA) [Ic_S1_P4E.1_K4.1_C4.1_H4.1_A4.1_[T5C]_[A6C]_[T7C]_F4.1_[A9G]_T4.1] | 32.7
UCUCUUUGUACCCAGUCUCUU (ssRNA) [Ic_S1_P4E.1_K4.1_C4.1_H4.1_A4.1_[T5C]_[A6C]_[T7C]_F4.1_[T8A]_[A9G]_T4.1] | 1230
UCUCUUUGUACCGUUUCUCUU (ssRNA) [Ic_S1_P4E.1_K4.1_C4.1_H4.1_A4.1_[T5C]_[A6C]_[T7G]_F4.1_[A9T]_T4.1] | 142
UCUCUUUGUACGCGAUCUCUU (ssRNA) [Ic_S1_P4E.1_K4.1_C4.1_H4.1_A4.1_[T5C]_[A6G]_[T7C]_F4.1_[T8G]_T4.1] | 727
UCUCUUUGUACGGUGUCUCUU (ssRNA) [Ic_S1_P4E.1_K4.1_C4.1_H4.1_A4.1_[T5C]_[A6G]_[T7G]_F4.1_[A9G]_T4.1] | 503
UCUCUUUGUACGUUCUCUCUU (ssRNA) [Ic_S1_P4E.1_K4.1_C4.1_H4.1_A4.1_[T5C]_[A6G]_F4.1_[A9C]_T4.1] | 29.9
UCUCUUUGUACCGCUUCUCUU (ssRNA) [Ic_S1_P4E.1_K4.1_C4.1_H4.1_A4.1_[T5C]_[A6C]_[T7G]_F4.1_[T8C]_[A9T]_T4.1] | 741
UCUCUUUGUACGAACUCUCUU (ssRNA) [Ic_S1_P4E.1_K4.1_C4.1_H4.1_A4.1_[T5C]_[A6G]_[T7A]_F4.1_[T8A]_[A9C]_T4.1] | 985
UCUCUUUGUACCGCGUCUCUU (ssRNA) [Ic_S1_P4E.1_K4.1_C4.1_H4.1_A4.1_[T5C]_[A6C]_[T7G]_F4.1_[T8C]_[A9G]_T4.1] | 1120
UCUCUUUGUACGAUGUCUCUU (ssRNA) [Ic_S1_P4E.1_K4.1_C4.1_H4.1_A4.1_[T5C]_[A6G]_[T7A]_F4.1_[A9G]_T4.1] | 23.8
UCUCUUUGUACGUACUCUCUU (ssRNA) [Ic_S1_P4E.1_K4.1_C4.1_H4.1_A4.1_[T5C]_[A6G]_F4.1_[T8A]_[A9C]_T4.1] | 1560
UCUCUUUGUACCCUCUCUCUU (ssRNA) [Ic_S1_P4E.1_K4.1_C4.1_H4.1_A4.1_[T5C]_[A6C]_[T7C]_F4.1_[A9C]_T4.1] | 41.9
UCUCUUUGUACCCAUUCUCUU (ssRNA) [Ic_S1_P4E.1_K4.1_C4.1_H4.1_A4.1_[T5C]_[A6C]_[T7C]_F4.1_[T8A]_[A9T]_T4.1] | 517

Binder | Kd [nM]
UCUCUUUGUACGUCAUCUCUU (ssRNA) [Ic_S1_P4E.1_K4.1_C4.1_H4.1_A4.1_[T5C]_[A6G]_F4.1_[T8C]_T4.1] | 118
UCUCUUUGUACCCAAUCUCUU (ssRNA) [Ic_S1_P4E.1_K4.1_C4.1_H4.1_A4.1_[T5C]_[A6C]_[T7C]_F4.1_[T8A]_T4.1] | 833
UCUCUUUGUACGCCAUCUCUU (ssRNA) [Ic_S1_P4E.1_K4.1_C4.1_H4.1_A4.1_[T5C]_[A6G]_[T7C]_F4.1_[T8C]_T4.1] | 29.5
UCUCUUUGUAGUUUUUCUCUU (ssRNA) [Ic_S1_P4E.1_K4.1_C4.1_H4.1_A4.1_[T5G]_[A6T]_F4.1_[A9T]_T4.1] | 118
UCUCUUUGUGUACAUCUCUU (ssRNA) [Ib_S1_P3E.1_K3.1_C3.1_H3.1_[A4G]_A3.1_F3.1_[T7C]_T3.1] | 38.9
UCUCUUUGUACCCCCUCUCUU (ssRNA) [Ic_S1_P4E.1_K4.1_C4.1_H4.1_A4.1_[T5C]_[A6C]_[T7C]_F4.1_[T8C]_[A9C]_T4.1] | 1090
UCUCUUUGUACCCCUUCUCUU (ssRNA) [Ic_S1_P4E.1_K4.1_C4.1_H4.1_A4.1_[T5C]_[A6C]_[T7C]_F4.1_[T8C]_[A9T]_T4.1] | 808
UCUCUUUGUACCGAUUCUCUU (ssRNA) [Ic_S1_P4E.1_K4.1_C4.1_H4.1_A4.1_[T5C]_[A6C]_[T7G]_F4.1_[T8A]_[A9T]_T4.1] | 519
UCUCUUUGUACGUUUUCUCUU (ssRNA) [Ic_S1_P4E.1_K4.1_C4.1_H4.1_A4.1_[T5C]_[A6G]_F4.1_[A9T]_T4.1] | 37.8
UCUCUUUGUACGCAGUCUCUU (ssRNA) [Ic_S1_P4E.1_K4.1_C4.1_H4.1_A4.1_[T5C]_[A6G]_[T7C]_F4.1_[T8A]_[A9G]_T4.1] | 1140
UCUCUUUGUACGUGCUCUCUU (ssRNA) [Ic_S1_P4E.1_K4.1_C4.1_H4.1_A4.1_[T5C]_[A6G]_F4.1_[T8G]_[A9C]_T4.1] | 466
UCUCUUUUUAUAAAUCUCUU (ssRNA) [Ib_S1_P3E.1_K3.1_C3.1_H3.1_[G2T]_A3.1_F3.1_[T7A]_T3.1] | > 2300
UCUCUUUGUACGGUUUCUCUU (ssRNA) [Ic_S1_P4E.1_K4.1_C4.1_H4.1_A4.1_[T5C]_[A6G]_[T7G]_F4.1_[A9T]_T4.1] | 360
UCUCUUUGUACGUCUUCUCUU (ssRNA) [Ic_S1_P4E.1_K4.1_C4.1_H4.1_A4.1_[T5C]_[A6G]_F4.1_[T8C]_[A9T]_T4.1] | 1520
UCUCUUUAUAUACAUCUCUU (ssRNA) [Ib_S1_P3E.1_K3.1_C3.1_H3.1_[G2A]_A3.1_F3.1_[T7C]_T3.1] | > 2300
UCUCUUUGUACCGUAUCUCUU (ssRNA) [Ic_S1_P4E.1_K4.1_C4.1_H4.1_A4.1_[T5C]_[A6C]_[T7G]_F4.1_T4.1] | 23.4
UCUCUUUGUACGGCGUCUCUU (ssRNA) [Ic_S1_P4E.1_K4.1_C4.1_H4.1_A4.1_[T5C]_[A6G]_[T7G]_F4.1_[T8C]_[A9G]_T4.1] | > 2300
UCUCUUUGUACGCCUUCUCUU (ssRNA) [Ic_S1_P4E.1_K4.1_C4.1_H4.1_A4.1_[T5C]_[A6G]_[T7C]_F4.1_[T8C]_[A9T]_T4.1] | 777
UCUCUUUGUACCGUGUCUCUU (ssRNA) [Ic_S1_P4E.1_K4.1_C4.1_H4.1_A4.1_[T5C]_[A6C]_[T7G]_F4.1_[A9G]_T4.1] | 515
UCUCUUUGUACCAGCUCUCUU (ssRNA) [Ic_S1_P4E.1_K4.1_C4.1_H4.1_A4.1_[T5C]_[A6C]_[T7A]_F4.1_[T8G]_[A9C]_T4.1] | 913
UCUCUUUGUACGCUUUCUCUU (ssRNA) [Ic_S1_P4E.1_K4.1_C4.1_H4.1_A4.1_[T5C]_[A6G]_[T7C]_F4.1_[A9T]_T4.1] | 51
